Measurements: patent US20030166587A1 (SIGNAL PHARMACEUTICALS, published 2003)
Non-standard residues stand in square brackets, D forms with d. No end group written: not given here. pS = N[C@@H](COP(=O)(O)O)C(=O)O

Biological target: specific IκB E3 ubiquitin ligase activity of HeLa extract
Test: cell-based or functional assay

Row | Binder | IC50 of inhibition of pIκBα ubiquitination (in vitro ubiquitination assay in HeLa extract)
1 | CKKERLLDDRHD[pS]GLDSMKDEE [ppS32, singly phosphorylated IκBα peptide] | 400 µM
2 | CKKERLLDDRHDSGLD[pS]MKDEE [ppS36, singly phosphorylated IκBα peptide] | 400 µM
3 | CDDRHD[pS]GLD[pS]M [pp11, doubly phosphorylated IκBα peptide] | 5 µM

Now from value to binder:

Row | IC50 of inhibition of pIκBα ubiquitination (in vitro ubiquitination assay in HeLa extract) | Binder
4 | 10 µM | CD[pS]GLD[pS]M [pp7, doubly phosphorylated IκBα peptide (minimal size peptide tested)]
5 | 5 µM | CDDRHD[pS]GLD[pS]MKDEE [pp15, doubly phosphorylated IκBα peptide]
